Where no end group is shown, it is not given here. [ ]: non-standard residue; d: D form. pS = N[C@@H](COP(=O)(O)O)C(=O)O
Biological target: T1, HLA-A*02:01 (human)
T1 construct: Peptide-receptive HLA-A*02:01 monomer obtained by UV cleavage of a UV-sensitive ligand; captured on streptavidin plates; also called peptide-receptive MHC molecules; MHC class I
Test: UV-ligand exchange, anti-b2m ELISA; grade of peptide exchange yield (>10% = +; >20% = ++; >50 = +++; >75% = ++++)
Source text: Candidate peptides for T cell based therapies according to the present invention were further tested for their MHC binding capacity (affinity). The individual peptide-MHC complexes were produced by UV-ligand exchange, where a UV-sensitive peptide is cleaved upon UV-irradiation, and exchanged with the peptide of interest as analyzed. Only peptide candidates that can effectively bind and stabilize the peptide-receptive MHC molecules prevent dissociation of the MHC complexes. To determine the yield of the exchange reaction, an ELISA was performed based on the detection of the light chain (β2m) of stabilized MHC complexes. The assay was performed as generally described in Rodenko et al. (Rodenko et al., 2006).
96 well MAXISorp plates (NUNC) were coated over night with 2 ug/ml streptavidin in PBS at room temperature, washed 4× and blocked for 1 h at 37° C. in 2% BSA containing blocking buffer. Refolded HLA-A*02:01/MLA-001 monomers served as standards, covering the range of 15-500 ng/ml. Peptide-MHC monomers of the UV-exchange reaction were diluted 100-fold in blocking buffer. Samples were incubated for 1 h at 37° C., washed four times, incubated with 2 ug/ml HRP conjugated anti-β2m for 1 h at 37° C., washed again and detected with TMB solution that is stopped with […]. Absorption was measured at 450 nm. Candidate peptides that show a high exchange yield (preferably higher than 50%, most preferred higher than 75%) are generally preferred for a generation and production of antibodies or fragments thereof, and/or T cell receptors or fragments thereof, as they show sufficient avidity to the MHC molecules and prevent dissociation of the MHC complexes.

| peptide exchange yield [%] | Binder |
| --- | --- |
| 50 to 75 | YIDPYKLLPL |
| 50 to 75 | SLGNFKDDLL |
| > 75 | MLFENMGAYTV |
| 50 to 75 | SLQERQVFL |
| > 75 | ALWGFFPVLL |
| 20 to 50 | KILEMDDPRA |
| 50 to 75 | QLIEKITQV |
| > 75 | ALMDEINFMKM |
| 50 to 75 | SLSDIQPCL |
| > 75 | AQLNLIWQL |
| > 75 | ALASAPTSV |
| > 75 | TLNDGVVVQV |
| > 75 | TLLSEIAEL |
| > 75 | VLDEGLTSV |
| 50 to 75 | ALPEPSPAA |
| 20 to 50 | SLRAFLMPI |
| > 75 | AQLNIGNVLPV |
| > 75 | ILSSACYTV |

| peptide exchange yield [%] | Binder |
| --- | --- |
| > 75 | ILFDEVLTFA |
| > 75 | QLLQYVYNL |
| > 75 | GLYGIKDDVFL |
| 50 to 75 | YLQNEVFGL |
| 20 to 50 | STASAITPSV |
| 50 to 75 | KILE[pS]LFV[pS]L [KILEJLFVJL] |
| 50 to 75 | GLHQDFPSVVL |
| 50 to 75 | ALYDAELSQM |
| > 75 | SLFPYVVLI |
| > 75 | YVMESMTYL |
| > 75 | FVAGYIAGV |
| 50 to 75 | LMAPAPSTV |
| 50 to 75 | VLYGDVEEL |
| 50 to 75 | ALEEANADLEV |
| > 75 | SLDGNPLAV |
| > 75 | FLFPAFLTA |
| 50 to 75 | VLAENPDIFAV |
| > 75 | ALMAGCIQEA |

— patent publication US20200155602A1 (IMMATICS BIOTECHNOLOGIES, published 2020)
